{"source": "patent US20020114780A1", "about": "“Methods of increasing distribution of therapeutic agents” (priority 2000, published 2002)", "key": {"dopamine utilization": {"system": "dopamine utilization", "test": "Dopamine utilization: striatal DOPAC/DA ratio by HPLC 4 days after intrastriatal infusion", "type": "in vivo, rat", "method": "In the study analyzing dopamine metabolism following trophic factor administration, the animals were infused with 5 μg of NTN in 5 μl of vehicle with and without heparin (2.5 units) and sacrificed after 4 days. The vehicle was 4% mannitol in 10 mM HEPES. After completing infusion, the cannula was withdrawn at 1 mm/minute. Following the procedure, the animals used for immunohistochemical analysis were intracardially perfused with 4% paraformaldehyde. Brains were harvested and immersed overnight in 4% paraformaldehyde. The brains were cryoprotected through immersion in graded sucrose solution (20-30%) and frozen at […]. Animals to be used in HPLC studies were euthenized and the brains were harvested and fresh frozen at −70°.\nAnimals were sacrificed 4 days after intrastriatal infusion of 5 μl vehicle with 18 μg of heparin, 5 μg of NTN in 5 μl of vehicle or 5 μg of NTN in 5 μl of vehicle with 18 μg of heparin. After decapitation, the brains were rapidly removed and chilled in ice for 4 minutes. They were sliced 1 mm anterior and 2 mm posterior to the injection site using a chilled plastic brain mold. For biochemical studies, frozen punches from the striatum were taken from the injected and uninjected sides for comparison. […] Dopamine (DA), serotonin (5-HT) and their metabolites were measured by HPLC using Ultrasphere C-18 ion pair column, 5μ, 4.6 mm×25 cm (Beckman 235329): a Waters 717 plus autosampler, Waters 510 pump at 0.8 ml/min, and an amperometric electrochemical detector (EiCom CB-100) set at 0.78 V. The mobile phase contained 2-1 deionized water, 2.8 g L-heptanesulfonic acid sodium salt, 0.17 g EDTA, 20 ml triethylamine and 50 ml acetonitrile, pH was adjusted to 2.6 with 13 ml of 85% phosphoric acid. The results were recorded and analyzed with Waters Millenium 2010 Chromatography Manager software. Protein concentration in the tissue pellet was determined using the BCA Protein Assay Kit (Pierce #23225). The results are expressed as nM/hr/mg of protein."}, "[1]": {"test": "Histological examination of infused brains for hemorrhage and tissue damage", "type": "in vivo, rat", "settings": "heparin 0.5 units/μl, low volume studies", "method": "Studies were conducted to establish whether CED could be used to distribute trophic factors within the GDNF family over volumes that might be relevant to larger primate brains. High volume infusions (20 μl) of NTN with heparin were able to cover significant volumes of the rat brain (FIG. 3). […] Maximum Vd attained following co-infusion with heparin was 37.3 mm^3, compared to a maximum Vd of 11.0 mm^3 in control animals (FIG. 3). At this infusion volume, in 4 out of 6 animals in which NTN was co-infused with heparin, the striatum was completely stained, as opposed to none of the subjects infused with NTN alone. There was no evidence of hemorrhage (H&E stain) in any of the specimens following the high volume infusions.\nAll brains had well demarcated areas of antibody staining following immunohistochemistry. In all brains, there was no evidence of tissue damage, with the exception of the needle track and some non-specific drill-induced cortical lesions. There was no evidence of hemorrhage in any animal at 0 or 4 days after infusion.\nThis emphasizes the importance of receptor binding in drug distribution as well."}, "[2]": {"type": "in vivo", "settings": "for increase in Vd when co-infused with heparin: 5 μg protein in 5 μl, 0.2 μl/min, with heparin (18 μg) vs infused alone; for Vd/Vi ratio: low volume (5 μl) infusion, apparently with heparin co-infusion (FIG. 2b)", "method": "(§1) The animals were anesthetized with ketamine (10 mg/kg) and xylazine (3 mg/Kg) via intraperitoneal injection and placed in a Kopf small animal stereotactic frame. A sagittal incision was made through the skin and a burr hole was placed into the skull with a twist drill. The cannula coordinates were: 0.5 mm anterior to bregma, 2.8 mm to the right of bregma, and 5 mm below the dura.\n(§2) The infusion apparatus consisted of a hydraulic drive serially connected to a syringe pump. This depressed the plunger of one of two 250 μl Hamilton syringes connected by cannulas made from polyetheretherketone (PEEK) tubing (inner diameter 250 μm) and filled with distilled water. One of the 250 μl Hamilton syringes was secured to the stereotactic frame and was contiguous with an infusate-filled 10 or 50 μl Hamilton syringe. Since the system was non-compliant (zero dead space), the compression of the syringe pump of the infusion apparatus led to the measured release of infusate from the 10 or 50 μl Hamilton syringe in a uniform fashion. All infusions were performed with a 32 g cannula at 0.2 μl/min (6).\nThe vehicle was 4% mannitol in 10 mM HEPES. […]\n(§3) The brains were cut into 40 μm serial coronal sections on a cryostat. Frozen sections were collected in a series in antifreeze solutions and stored at −70° C. Every 12th section was stained for immunohistochemistry.\nSections were washed in phosphate buffered saline (PBS) and incubated in 3% H2O2 for 20 minutes to block endogenous peroxidase activity. […] The sections were then incubated for 1 hour in biotinylated anti-mouse IgG secondary antibody (Vector Labs, 1:300). Antibody binding was visualized with streptavidin horseradish peroxidase (Vector Labs, 1:300) and VIP chromogen (Vector Labs). Sections were then coverslipped and examined under light microscopy. Vd was measured using NIH image analysis software.\nThe volume of distribution of BSA and the GDNF family of trophic factors was analyzed using a Macintosh-based image analysis system. Images of stained tissue slices were captured by a CCD camera using Adobe Photoshop software. Using NIH Image Analysis software, the area of distribution of infused protein in each tissue section was automatically determined using a threshold of 50% of the maximal stained optical density. The sum of the areas of infusion was used to determine the Vd in each striatum."}, "[3]": {"test": "CED high volume (20 μl) NTN intrastriatal infusion, volume of distribution by immunohistochemistry", "type": "in vivo, rat", "method": "as §1, §2\nThe vehicle was 4% mannitol in 10 mM HEPES. In the high volume experiment, 50 μg of NTN in 20 μl of vehicle with (n=6) and without (n=6) heparin (71 μg) was delivered into the striatum.\nas §3\nSections were washed in phosphate buffered saline (PBS) and incubated in 3% H2O2 for 20 minutes to block endogenous peroxidase activity. […] Vd was measured using NIH image analysis software.\nThe volume of distribution of BSA and the GDNF family of trophic factors was analyzed using a Macintosh-based image analysis system. […] Using NIH Image Analysis software, the area of distribution of infused protein in each tissue section was automatically determined using a threshold of 50% of the maximal stained optical density. […]"}}}
{"molecule": "heparin [reference compound]", "values": [{"measurement": "DOPAC/DA levels compared to the uninjected (left) striatum", "setting": "dopamine utilization; 5 μl vehicle with 18 μg heparin, 4 days", "result": "no change"}, {"measurement": "gross or microscopic hemorrhage", "setting": "[1]", "result": "no evidence of gross or microscopic hemorrhage"}]}
{"molecule": "Artemin", "values": [{"measurement": "increase in Vd when co-infused with heparin", "setting": "[2]", "result": "greater than 10 fold"}]}
{"molecule": "Neurturin (protein, UniProt Q99748 96-197, looked up, trophic factor of the GDNF ligand family) Neurturin: ARLGARPCGLRELEVRVSELGLGYASDETVLFRYCAGACEAAARVYDLGLRRLRQRRRLRRERVRAQPCCRPTAYEDEVSFLDAHSRYHTVHELSARECACV", "values": [{"measurement": "increase in Vd when co-infused with heparin", "setting": "[2]", "result": 7, "unit": "fold"}, {"measurement": "Vd/Vi ratio", "setting": "[2]", "result": 4.6}, {"measurement": "DOPAC/DA ratio", "setting": "dopamine utilization; 5 μg NTN in 5 μl, with or without heparin 18 μg, 4 days after infusion, mean +/- S.E.", "result": "146+/−14.2 percentage of the uninjected h"}, {"measurement": "DOPAC/DA ratio compared to the vehicle+heparin group", "setting": "dopamine utilization; 4 days after right striatal infusion, Fisher test", "result": "significantly increased"}, {"measurement": "animals in which the striatum was completely stained", "setting": "[3]; 20 μl infusion, n=6 per group", "result": "none"}, {"measurement": "Maximum Vd", "setting": "[3]; rat, in vivo", "result": 11.0, "unit": "mm^3"}, {"measurement": "Vd", "setting": "[3]; rat, in vivo", "result": "7.7+/−1.1 mm^3"}]}
{"molecule": "GDNF (protein, UniProt P39905 78-211, looked up, glial cell line-derived neurotrophic factor, trophic factor provided by Genentech) Glial cell line-derived …: SPDKQMAVLPRRERNRQAAAANPENSRGKGRRGQRGKNRGCVLTAIHLNVTDLGLGYETKEELIFRYCSGSCDAAETTYDKILKNLSRNRRLVSDKVGQACCRPIAFDDDLSFLDDNLVYHILRKHSAKRCGCI", "values": [{"measurement": "increase in Vd when co-infused with heparin", "setting": "[2]", "result": 5, "unit": "fold"}, {"measurement": "Vd/Vi ratio", "setting": "[2]", "result": 5.0}, {"measurement": "effect of heparin co-infusion on Vd", "setting": "[2]; rat, in vivo", "result": "significantly increased"}]}
